The domain aggregation screens of Martell et al. (2025)

Test: soluble fraction after stress (log2 fold change); higher = more stays soluble; pooled small domains, quantitative proteomics
Details: stress: pH 4
Outline: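 After pH 4 stress, pooled custom libraries of small protein domains were quantified with high-throughput quantitative proteomics. Aggregation propensity is taken from the fold change in each domain's soluble amount following the acid stress. The scale is log2, where higher values mean more stayed soluble.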

Sequence	soluble fraction (log2)
HMVSRAFEEETVKRAESGNQEAALFALELAIREIEHSYEKSKIIDYFVSKVRLFLDNGVSLERALGIH	-0.0689
HMKAPDSQYKPLTDFQTDASFQKLDAYLRNRYPAMLANAVVYDVLRTPDAISYRVNYQVDNKMITINAAVT	0.157
HMLTKSVLGNQIKVLRLEKGLSQEEFGAPVDLSRSAVSQIESGQMYPSLESIGKIVKYYSTSWDNLVG	-0.162
HMEDVRSLTGPEKAAIILLSLGEEHGQGVWRMFDDEEVKEVSQIMANLGTISASVVEKLLVEFVSQMST	-1.5
HMEYRVRDKMTDILELLTEHRGRIALRDAFPTGTREELLAAFLALLELTKMQTVIVYQDRLYDDIQIVMK	0.22
HMLKPVVLLGARGLTDAVEKEVERALDEHGLIKIHVPSDDREERDEIYTTLADKLNAARIQAIGKMLVLW	-0.00783
HMVSSEGLASGIERMLVEFGLETDKGRRFAMWSLLYMLGSAPDLDVAFKDPRDREAARTFMDLLDQANA	-0.99
HMRDGYEKPTEVGEGGRNPAMLSYIGHLRAKGHLSEEDIRSMAHGFNATTFDPPLDRDEVDGLVSRY	≥ 0.43
HMKKSIRIFELMKAKVAAEIFDQMILEGKIEDVFDIIVRLKDSNVSNIMKTMSVENSSRLVQKLERYNKD	-0.626
HMLVMTDNVIKAINDLLNYEAAAGIKKKQRYTAYQIYKELSEQGVYHGSRRRMEEVVSKLRVERNQI	-0.249
HMTPTNILIVEDEKEIRRFVRTALESEGLRVFESETLQRGLIEAGTRKPDLIILDLGLPDGDGLSYIRDLR	-0.662
HMNSYKGELLVDDKNIRLDLYLFNQFNFFSRTKIKNYILKGNVLVNNNKTSPSYILKGSEKIYYDFSVS	-0.251
HMETTVSYSGVVTASVLRIRKGPSVSSSVAGTLKKGTGVSIIFEDNGWGKLADGSGWVSLTYIKKNSTP	-0.101
HMDDIVFPNPTKNQINVSIDGLKNIYNLSGKLLISTNDKIIDVSILKAGVYFINTNEQFYKFVK	-0.797
HMAVPLVRGTVTSSVGTVLLLSVGERDFFLSEGEEKDGVLLQSLSEKSAVVVVSGRAYTLSL	-0.435
HMNVEQQNQARENIKRLMEEQGLSQPKLSEKAGIAFGTLSRILRGKQDLTIQTAEKIADALGLSVYDLAE	0.247
HMNISRESLIGQILATLNKNPEEGFNYKQIAKRLNITDSPGRQMISDLLRELSKHGSLQEISHGKYKIKV	0.215
HMDEALLRATLLDVLVKHHPKIGDKLDVVFALAKAWVSSGSDDDFEVLEKYMERLKPDEALMLASGFSNML	-0.819
HMGPVRRDLEINGRMVPLTIREHARATRITLRIEPGGQALRLTIPPGLPTREVDSFLTRHHGWLMTKLAHI	0.0131

Sequence	soluble fraction (log2)
HMAGSTAASKHALALLNTARHSIRDGNLTSAAAEIKQALATSQEQIVITEARSLMTAMEARATTRRATVLQ	-0.179
HMDEAAGVLTQLRAFIAASNLSPGLRLPPERELAEQLGVTRAELRKALAVLEAEGLLWRQVGKGTFYGARP	-0.523
HMYVTGSAIRRLREKRKLTQAQLAAALSVSDKTVSKWETARGLPDITLLEPLARALQVSVPELLSGEEV	-0.0388
HMESWEDSNIANEFKSTIKIAEKRLAEGGDHPELLEKLEALKQAIINENQTEASKLDDQVNDILFDMDD	-0.558
HMKKIFIDAPLDTMITIPKDTTHHLLTVFRHKMEKPVLVGGSDGRTGVYQIQDVVDGEASAKLVGDIQ	0.318
HMEHTPHGVALLRTLMDQYGLKAADLANELGSKSNVSNILNGRRALTVSHIKMLAERFNLPADAFI	-0.137
HMETKKEIIEAINELEEKYRNAIYLTSIEKLSYEETSKILGQSLSNTKNLIHRGKQQLRKILIKK	-0.37
HMITKAIELAEEAEKETVWLGVWEHNHPAQKFYQSLGFVKTDEHDFYMGNERHTDYTMTKQLK	-0.958
HMNYSKQRETILKVLRSTRSHPSVNWIYENVKKEIPDVGLATVYRNLKQLEAAGEIMRIQGDFPEERWDGF	-0.587
HMQMEISQRIKLERQTLKWTQEELADKIFVSKRTISNWETGRTVPDIESVLRLAKVFHVSLEDLLL	-0.021
HMGMAQELMESRLTAVFTSGKDQLAVLQRKDGSTLKLGADSKPWRIESFDGRKAVFVSADQQRVERLL	-0.599
HMITALLPGTVLIREFDGRDYHVTVATDGRFEMDGHKYPSLSAVAKHITGTQWSGPAFFGLN	-0.0323
HMKPSKTDEAEYWLMERLEEGPQPAGDLIRIGEEFGYTPKILRDAGERFNMERYKDGLDHWMWKLPN	0.349
HMEQYYVFFAGGMTIGTKEWYESILPENIATSYDDILEGKMMPASLEQIEFYNSHKDYDLYHLFYML	-1.4
HMTTEIVRMKKDVKIGQEITAKDIEVVEVGAYNLPDEVIRSSEEVVGKYVSSELLKGEYVLPSKISDTP	-0.53
HMGEEIRTWTDAQGRKIEARMSMLDGDQVLLELKDGRKIPYPLAKLSADDAHYARHFASASASD	-0.00959
HMDNEVTIAVQVNGKLRDKLIVALDTPNEKIEQLALALPKVIQNTSGLTVRKVIVIPNRLVNIVA	0.123
HMLHNEFINDRIQSAINNLSEHFKIVIILRDIQELSYEEISNIVEVPLGTIKSRINRARIQLQAELLDL	0.103
